# Assay: soluble on expression in E. coli; label from the status in PepcDB or PDB records
row,Sequence,soluble on expression in E. coli
1,MSLPISLTDFFPIQGGMATRMVIEGANFGTDLSQIKVFFNQKEASILNVKNSIIYLLVPKLPGNDCIVTVKVGNQEARFTRNFQYIENYSVTTIAGQPGTNLFVEGTLAAAQFGPVQHLAIDDENNLFITERNGSDGKGTCSVLNEESGTVTFLFKASDNLNVPTVNAQTQNVYIPLDGGYTFYELNPVNQWIAKSRLVLHPSKEQQEAGMDDFEINWKHSLAFSRYDNMIYTRSYGGDLIKVDPETRVGQKIGNFFPNTDSFIVAHPTQPEILYIAYAAKHVIYTYNIETGEHKLFAGAFGQSGWNDGIATDAEFNSPRQMSLDMEGNIYIADSGNHCIRMIDKNGIVTTPIGQPGEAGYADGSPDMALLNDPRGVAVNSEGDVYIADLGNRCIRKLTLQLEHHHHHH,soluble
2,MSLPNSEDLRKPDAQREVGRHYPVTLDNQLVSTPEEEVIAPPSVMLRWETYQVANGESAALLFQRAGLSSRVLYELTSSNSDINNQLSKLMPKDELKFGFDKDNQLVQLKRTISPYETFVVTRSDSGFTSEFDKKEVTFQLNYAEAKITSNFWNAGVTAGLSANQIIELANMFGWDIDFALDIREGDQFKLLYQEKIVEGSVIGRGNIIAATFINQGSTFTAILDDNTGNYYDQNGRAMKKAFLRSPLDFRRVSSNFNPRRLHPVTGQIKAHRGTDYVAPVGTPIWAAGDGVVEKSSYNQFNGNYVYIRHSNTYITKYLHLQRRLVKTGERVKQGQTIGTLGGTGRVTGPHLHYEFLVNGIHKNPRTVELPQAQSLTGKAKETFIANAKQRMEKLERYSQLLYANQEGHHHHHH,soluble
3,MSLPQKSKVMHIARTLTGSTTQDEGQERQEAKTQDCQEDKRPETLVKGNGNNMECSRLREKQGVLIANRDGGTR,not soluble
4,MSLQEPFSQLESEIQVLKSHIANISGLSVPKNVLKNADGSTLKSLSEASLKVIEKTIRITAHAVNLKLRIETDIANLKNQIKLLTETKEQQDALSKALEASSTLVKLEDRHERLTERIQALEKKIDEAIRQLSYKESMPLSKEEKLWIREVNGINALLNNAGEDSLALKIEDLKVQVTALSQNEHSANEHLTDAEIQKRQNSIILAKLSLWLQNDLEKLDEVKQSVTDCIRRLREGHHHHHH,soluble
5,MSLQFIGAGLGRTGTLSLKLALERLGVGRCYHAMELAANLRQDLPQWESAIDGRPDWDRIFAGYAATTDYPGCCFWMELAARYPHAKVILTVRDPDAWFDSVSATIFSGSNNLPSLFGSRGQRLSQFLRRDLGARLGERAFMTDYFRRWNQAVITHIPAPRLLVLDTDTESSWERLCAFLALPVPAFPYPRVHMRGASVPQRPLPTEPALIEQRMRTYLDRLAEEAFAPPTAPLEHHHHHH,soluble
6,MSLQIAANKAVSIDYTLTNDAGDVIDSSAGGAPLVYLHGAGNIIVGLEKALEGKNVGDELSVAIEPEDAYGEYSAELVATLTREMFEGVDELEVGMQFHASAPDGGMQIVTIRDIDGDDVTVDGNHPLAGQRLNFKVKVVDVREANAEEIAHGHIHGEGGHHHEGGSHHHHHH,soluble
7,MSLQLADAQADLPYIHGFSAAEQARLVRQARFSEAMVYRDVDFSGVQKLLEVGCGVGAQTEILLRRFPDVGITGLDFSQRQLAVARQRLQGSPYHDRATLLHMDAEDLDFPPASFDGAFLCWILEHVHSPERVLAEVRRVLKPGARLYATEAMNATFFLAPYSANLQQYWLAFNDHQLSVGGDPFVGAKLGNILMRLGFRHVETKVKTWHLDSREPHRRQQVLDYWAELLLSAADQLIEAGRVDAELVDSMTRELRLLRSNPELVFFYSFMQASAVVEGHHHHHH,soluble
8,MSLQNADRLSREYVAGVNFLLSNQQDKAVDLFLEMLKEDSSAFEAHLTLGNLFRSRGEVERAIRIHQSLMESASLTFDQRLLATQQLGRDYMSAGLYDRAENMFAQLVNEKDFQENAFQSLLTIYQSTSDWKKAIDIAEKLVKSGKHDLREKIAHFYCELALQEMSGDDLDEAIGYLNKAVQADKNCARVSIMLGRLFMARQEYNKAADALKSVLEQDKQLVSEVLPILQECYQHQNQIDEWENFLKRCVEEDCGATAELLLADIIEQQKGHEVAQTYINHRLERHPTMRLFYRLMDYHLAEAEEGRAKESIILLRDMVGEQIRTKPNYRCHKCGFTSHSLYWHCPSCRSWDSIKPIRGLDGQEGHHHHHH,not soluble
9,MSLQNFQTEEISALIQNYDFDKALYKLKSHYSDMTFKEADSLLLANNIVYSENNETQQQQYLANLDTLLRDINNNHSEIASFTIYKNDMILVNTHNLYNHGFYKINSSLENIYFNLSEITDNDDQFAKYFKLLNLFFSTISRDAILSTSDKFNDIAIRKHEHSTNISTAFSQIFNECLKSKFEKNNVKTLFAELATYDIIEILNELIENHLKDTSYHLDNFVEAFTGNVMNSSIIIENLYHQIVVQNKLLQLVLLSFLFLDFDTNIFGDKIETLLDINYKQTFFMSFYEFDSKLTQSSMSMHTLQYPHGVQIFSSSELAGYLEFEIATLYSTPIVDSRLYIAFMQEYVLNWREKMEPPQKAINFFKYILEPLYRRNEIDEEFLLAMSMFNCGRFEQAYEFFTMNDYMLHLANKLPPFLKNVQQNSLWYELLKTFTESSTNAHYYLQLSLLFKTYNRLDLALKCVSKSVEYSMKHPSVEEGHHHHHH,soluble
10,MSLQPALGVLVASSQPLDQYVVRHPDFFADASPEHARTAPDQPLILFDHIRCAAFELPFIASEPFGPIDPLVFLEVLAESEVIHQEGDRWEWIADSYPATAVSLRSVADGNFVVVDKSDGKQQIIAEVDYSAAALTLYEGAIHMVQSRPYQVERLDWAGRKAYVTRTHVDYYTDSIDYTKLKVLDRFDGGVAGRGDSHHGEVHVVRRVSGYKKIRYYTHENIGYGPVNLPDQELHTTAVWWQLPQATLGKAFEGHHHHHH,soluble
11,MSLQPVAKTEQPEGGILYDFGKETFGFITLKNLSGKGKIDLYYGESPEEAKDKAYCETLDKLLLEPGQITDLAIRSTSPLHHSDNEYTLENSKAFRYVYITHEPEVQIGEVSMQYEYLPEEYRGNFRCNDEELNCIWEVGAYTMHLTTREFFIDGIKRDRWVWSGDAIQSYLMNYYLFFDSESVKRTIWLLRGKDPVTSHSNTIMDYTFYWFLSVYDYYMYSGDRHFVNQLYPRMQTMMDYVLGRTNKNGMVEGMSGDWVFVDWADGYLDKKGELSFEQVLFCRSLETMALCADLVGDKDGQQKYEKLASALKAKLEPTFWNNQKQAFVHNCVDGRQSDAVTRYANMFSVFFDYLNADKQQAIKQSVLLNDEILKITTPYMRFYELEALCALGEQETVMKEMKAYWGGMLKAGATSFWEKYNPEESGTQHLAMYGRPYGKSLCHAWGASPIYLLGKYYLGVKPTKEGYKEFAVSPVLGGLKWMEGTVPTPNGDIHVYMDNKTIKVKATEGKGYLTIQSREGHHHHHH,not soluble
12,MSLQQPLAYRMRPRHLDEVVGQQHLVGPGKIIRRMVEAKMLSSMILYGPPGTGKTSIASAIAGSTNYAFRMLNAATDTKKDLQIVAEEAKMSGTVILLLDEIHRLDKTKQDFLLPHLENGRIIMIGATTENPYITINPAIRSRTQIFEVKPLTETDIQQAIQEALTDSTRGLGDYPVHLEEKALQHLTRATNGDLRSALNGLELAVKSTPKNEQGEIKITLPIIEECVQRKALTHVKDGDAHYDVISAFQKSIRGSDVDAALHYLGRLVEAGDLPIICRRLMVIAYEDIGLGNPAAAARTVTAVQAAEKLGFPEARIPLASVVIDLCLSPKSNSAVTAIDAALADIRQGSVGDVPDHLRDAHYAGAKELNRGIGYQYPHNFENGWVNQQYLPDKLKEARYYEPIDIGKYEQALHQQLKRIQEWKEGHHHHHH,soluble
13,MSLQRVQIMGAGALGSLVGALIQLAGYDVIFVARGKQLEALKKGLRVSGLKNAELKVYCTSQPEDADITFVTVKAYDTETVAKKLAEVDAGVVCSLQNGVGNEEILAKYCRKVLGGVTTYGANLKDYGHVVYAGEGYTYVGEMDGRVSGEAEMVAEVLRDAGMRAEAVNDIEFRIWAKAVVNAAINPITAICRVKNGEVVRNPHLWEVARAVADEGRQVMARMGYEFDAASEVRKVAEMTAENRSSMLQDLERGKRTEVEFINGAIVKKGEEFGIDCAVNRTLLNLVRGVESGEGHHHHHH,soluble
14,MSLQTKILIIDGDKDNCQKLKGFLEEKGISIDLAYNCEEAIGKIFSNKYDLIFLEIILSDGDGWTLCKKIRNVTTCPIVYMTYINEDQSILNALNSGGDDYLIKPLNLEILYAKVKAILRRMNSYVNNNENNTKLEEYNRTSGVIKLEDKIIKLTPTENKLLNFFIENPEKTLTTKEIYEHVWMNEYLEDNYSVVVAVNGLRKKIEKDYKNPQKIITIRGAGYYFNKEGHHHHHH,soluble
15,MSLQYQVVPVTAFAQNCSIVWCDETMEGIVVDPGGDVKQLAMLIAELGVKVTQLVLTHGHLDHVGGTQSLAQALGGTRVVGPHKADNFWLQGLEGQSKMFGFPLTEAFEPDEWLDDGDVIHFGQQTLQVIHTPGHTPGHVVLFSEAARLAFVGDVLFNGSIGRTDFPQGDFNTLIASIKNKLWPLGSDVTFIPGHGPQSTFGRERASNPFVADEMPLY,not soluble
16,MSLRAAKRHGISIIVAEKNLILGLDVGNTVIKAVLFDTAGRQIAQHAIDGHSTYPQPGYVERDLEELWRNGCEAIRQLLVKSAVDPNSIAGVGCAGHGNGLYLLDKEQQPLLGIQSLDSRAADMAAELDRKSGDLLQARCLQRPWPAQTPTLLAWVKRHALDLYAQTSTVLFCKDFINFRLTGCLANDISDLSGAGLLALPEVLLDRELLSLYGLEDAFAFFPRCVESADIVGQVTREAAGLTGLSEGTPVIGGFFDVVSSAMGSGVINPGEASVIAGTWSINQVFADKPVVSPDVFMVTTFGRDRYVNIESSATSAANLEWYVHRVRADHGDHAFERCNELVGSVTPRADDPFFHPFIFGSRLGAEFRGGFYGLAGWHGEGHMVRALFEGVCFEHRRHIGVLREAGLPVESAVMSGGGSRSQHWPQIMADVLEIPLRVAEARETGALGAALGAAVATGLYPNYEEAVAAMTRVQNSYQPDTARVSHYRRRYGLYQELTGQLRSFWSALRLPQEGHHHHHH,not soluble
17,MSLRFTTISKAYDNVTTDDTQYRILIVEDDRSQALFAQSVLQGAGIHAQIEMSASEVLKVIEDYRPDLILMDLNMPELDGISLTTLIRQQPNQLLLPIVFLSGDTDPEKQFEVLDSGADDFLTKPIQPRHLIAAVSNRMHRLRQQQQNAQQADTQINIQKTSITELQTRIHIVEQLEVALSSGAQGALFFIEVSSALNLRTRYGYTAFERLMNQVEYHLAQEAHPYSLARISDHSFLLLAIDLAATEHQALATHLREHLATLPLPIQDDELVHLRSAIGYAPLNQGFKNADDAVECTESATLEARQNNEGIYAYVPLRTPENTGHLALLDGQLELAYQPIVEVAGSDTAQYQVLLRLRKADGNLLSAGLVIPAAEAAGRIMELDQQVIEQALDILKLHQDTNQQLRLFVSQSVRTLIHEGFSDWIIKNLRERNVNGTGLVIDLRLQDAVIHAIPLKQLCKELLKHNVKFCLSQFESNSEATVLFSELPLNFVRLSQHFGDAHNHPERQKELPLLIEQAHEHNLHVIGQCIEDAQAATFMWMNGVDLIQGNLFQNVSKDLNFNFHDMVLEGHHHHHH,soluble
18,MSLRHFFGAFLLGMATLTVMPTEQVLAGTLTGQPPIVIGHRGASGYRPEHTLAAYELAIQMGADYIEPDLVATKDGVLVARHENALAILNADGTLNLTDTSTDVFERLQFADRKTTKVIDGRSITGWFTEDFTLAELKTLRAIERIPGIRPQNTQYDRQFEIPTLQEVIDLAKAQSAALGRTIGIYPETKHPTYFDSIGLSMEEILVSVLNANGYVDESAPVYIQSFEVSNLKDLNRLTNVSLVQLISPSGRPYDFVVNGDSRLYRDLITPLGLAEIATYANGIGANKNLIIPRDGRGNLLSPTTLVDDAHAAGLIVHAWTFRNEDVFLPTNLQGNPQEEYKRFYQTGIDGLFSDNPDTAFAVRSTLVPEPGTIFGLGFVPLLGWLFRRRKEGHHHHHH,not soluble
